Measurements: IntAct's records for PubMed 17408621

Target: ccnb2_human CCNB2 (UniProt O95067)
Chain of UniProt O95067 (O95067 whole entry): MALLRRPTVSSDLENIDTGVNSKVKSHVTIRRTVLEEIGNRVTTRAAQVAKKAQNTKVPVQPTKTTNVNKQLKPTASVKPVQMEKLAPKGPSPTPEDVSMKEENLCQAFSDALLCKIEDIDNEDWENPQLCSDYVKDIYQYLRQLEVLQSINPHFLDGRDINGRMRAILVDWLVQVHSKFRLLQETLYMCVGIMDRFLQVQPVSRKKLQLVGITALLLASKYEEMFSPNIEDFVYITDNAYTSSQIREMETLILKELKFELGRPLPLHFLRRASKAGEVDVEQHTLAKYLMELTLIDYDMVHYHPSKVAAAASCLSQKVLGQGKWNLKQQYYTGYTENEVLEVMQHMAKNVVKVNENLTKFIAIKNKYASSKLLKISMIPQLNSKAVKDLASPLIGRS

With Filamin-A (Homo sapiens), P21333 S1436G the “effect of a mutation on the interaction” value was “disrupting interaction”.
